Results from article PMC12150503 (Cell Communication and Signaling : CCS, 2025).

T1: His-mouse IKKβ (purified) (mouse, UniProt O88351 1-757)
T1 sequence (looked up): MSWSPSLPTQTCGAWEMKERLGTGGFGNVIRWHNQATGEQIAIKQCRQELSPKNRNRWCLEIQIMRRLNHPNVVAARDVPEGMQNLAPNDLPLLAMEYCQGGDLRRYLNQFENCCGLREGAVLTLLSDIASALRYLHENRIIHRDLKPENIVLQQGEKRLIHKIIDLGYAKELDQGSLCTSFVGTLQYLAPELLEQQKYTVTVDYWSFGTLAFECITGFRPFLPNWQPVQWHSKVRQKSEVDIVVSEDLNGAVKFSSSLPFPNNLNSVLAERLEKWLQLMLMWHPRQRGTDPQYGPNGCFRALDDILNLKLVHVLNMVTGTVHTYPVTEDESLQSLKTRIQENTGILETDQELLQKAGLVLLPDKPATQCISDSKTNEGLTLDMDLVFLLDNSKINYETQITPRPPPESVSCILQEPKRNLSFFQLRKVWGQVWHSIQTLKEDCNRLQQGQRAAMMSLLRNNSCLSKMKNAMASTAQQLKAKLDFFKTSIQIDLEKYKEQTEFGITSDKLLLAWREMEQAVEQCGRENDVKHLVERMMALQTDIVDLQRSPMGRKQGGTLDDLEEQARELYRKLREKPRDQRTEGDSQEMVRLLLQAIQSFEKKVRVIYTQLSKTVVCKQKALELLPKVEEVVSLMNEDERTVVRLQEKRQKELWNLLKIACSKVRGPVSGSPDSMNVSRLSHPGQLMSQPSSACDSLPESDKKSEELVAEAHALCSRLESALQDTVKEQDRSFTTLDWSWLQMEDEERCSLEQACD


Target: T1, His-mouse IKKβ (purified)
Experiment: pull-down

Row | binding result | Binder
1 | binds | GST-mouse RMP-WT (natural protein, UniProt Q3TLD5 1-531, looked up) MEPPSEPEPEPQPLAEASAAAPLRAPEVARLREEQEKVVTNCQEKIQHWEKVDNDYSALQERLRTLPDKLSYDVMVPFGPLAFMPGKLVHTNEVTVLLGDNWFAKCSAKQAVGLVEHRKEHVRKTIDDFKKVLKNFESRVEFTEDLQKMSDAAGDFVDIREEIKSDFEFKGKQRIAHKPHSKPKTSDIFEADFENGVKPKNTFDADELWARLEELERQEELLGELESKPDTVIANGEDRVSSEEEKEGADTGVNVVSPVTDSSAASSCKRRAGNAGLPNGQVNSLNYSVNGSNSYHSNKDDDEEEEDDDDDDDEDDDNESDHAISADNSIPTIYFSHTVEPKRVRINTGKNTTLKFSEKKEEAKRKRKSGAGSHATHELPAIKSPADIYRVFVDVVNGEYVPRKSILKSRSRENSVCSDTSESSAADVEDRRGLLRSTSSEEAVATEAGGSSLDELQENHPKKPLPSGVSEAFSGTVIEKEFLSPSLAPYSAIAHHALPTIPERKEVPSEVSEEPTKRVSKFRAARLQQRS
2 | binds | GST-mouse RMP-S439A (natural protein, UniProt Q3TLD5 1-531, looked up) MEPPSEPEPEPQPLAEASAAAPLRAPEVARLREEQEKVVTNCQEKIQHWEKVDNDYSALQERLRTLPDKLSYDVMVPFGPLAFMPGKLVHTNEVTVLLGDNWFAKCSAKQAVGLVEHRKEHVRKTIDDFKKVLKNFESRVEFTEDLQKMSDAAGDFVDIREEIKSDFEFKGKQRIAHKPHSKPKTSDIFEADFENGVKPKNTFDADELWARLEELERQEELLGELESKPDTVIANGEDRVSSEEEKEGADTGVNVVSPVTDSSAASSCKRRAGNAGLPNGQVNSLNYSVNGSNSYHSNKDDDEEEEDDDDDDDEDDDNESDHAISADNSIPTIYFSHTVEPKRVRINTGKNTTLKFSEKKEEAKRKRKSGAGSHATHELPAIKSPADIYRVFVDVVNGEYVPRKSILKSRSRENSVCSDTSESSAADVEDRRGLLRSTASEEAVATEAGGSSLDELQENHPKKPLPSGVSEAFSGTVIEKEFLSPSLAPYSAIAHHALPTIPERKEVPSEVSEEPTKRVSKFRAARLQQRS
